According to the RNAGym collection of RNA variant scans (doi:10.7554/elife.80360):

B1: HDV Ribozyme (parent)
chain: GGCCGGCAUGGUCCCAGCCUCCUCGCUGGCGCCGGCUGGGCAACAUUCCGAGGGGACCGUCCCCUCGGUAAUGGCGAAUGGGACCCA

Variants of: B1
Experiment: self-cleavage, relative activity (ratio to wild type); higher = more cleavage; co-transcriptional

Variant	self-cleavage
C33A G40U	0.23
G28C C48G	0.138
A8G G17U	0.554
G5A C7G	0.0875
U12C G50C	0.434
G5A A78C	0.106
C66A C85U	0.985
C75U A87G	0.0917
C22U G40U	0.394
C58G C75G	0.415
U12G C63U	0.755
G1U G54C	0.361
C21U A77U	0.13
A77G U79G	0.465
C13U G68U	0.614
A56G G80U	0.165
G11A C44A	0.187
C19G G74A	0.161
G2C A45G	0.107
G68U A70G	0.95
A8G C26G	1.36
U20C G59A	0.208
G1C C44A	0.353
G11A C86A	0.535

Variant	self-cleavage
C21A G25A	0.116
C66U C84U	0.683
G73U C86G	0.354
C48U C86G	1.14
U9C C84A	0.65
U12C U69A	0.166
C14U C85U	0.831
G39A G40A	0.786
C19U G40U	0.0839
C13U A56C	0.677
C19A C84G	0.196
C13G G68C	0
C33U U46A	0.434
G40C G59C	0.229
C24U A70C	0.573
C19A G34U	0
C14U C22G	0.155
G35U U46G	0.141
G54U C84G	0.529
G5U G80A	0.208
C32U U79G	0.504
C36G A77U	0.177
U37C A42C	0.115
C49U C75A	0.196

Variant	self-cleavage
C15A C57A	0.764
G6C C85A	0.0791
U46C G67A	0.671
U9G G40A	1.29
G39C C58A	0.521
G38C C63G	0.287
G1U G10C	0.292
G59U A70U	0.923
G39A A42U	0.272
C30A C32G	0.101
G2C U47G	0.0923
C15G A83U	0.0791
G5A C22U	0.0831
G11C U46G	0.133
C15A	0.698
G2A U65C	0.117
G2A C7U	0.0852
U12G G52A	1.05
U23A G59C	0.811
G10U C19G	0.1
C13U A43U	0.151
U72C A78U	0.249
C19A G31U	0.192
A42C G55C	0.243

Variant	self-cleavage
C64G C85A	0.956
C13A A87G	0.187
C3U U23C	0.776
A51C C57A	1.02
G6U A8C	0.447
G17U G28C	0.0652
C63A C75G	0.201
G28C A56C	0
G2U C85A	0.104
U27G U69A	0.959
C21A C85A	0
G1A A78C	0.0627
A43U U69C	0.494
C7G G74A	0.138
G28U C58A	0.208
C30A C62G	0.321
C49G G50U	0.47
G28A C33G	0.149
C32A G53A	0.234
C32G G35C	0.0386
A16C G53U	0.755
U27A C36G	0.298
C4G G76U	0.469
G28C U69A	0.123

Variant	self-cleavage
G11A C66U	0.431
C4U G35A	0.173
C64G U79G	0.506
G50C U69A	0.831
G40C C44G	0.106
U72G G82C	0.453
G50U C63G	0.332
G39A A83C	0.277
G1C C84G	0
C13G C66G	0.135
U27G G29U	0.739
C75U G81A	0.166
G10C A16U	1.49
C48G G55U	0.972
C33U G81U	0.177
C21U U23G	0.13
U12A C26U	0.982
U9C C63A	1.14
G38U C63G	0.0978
U72C G73C	0.208
C21A A45G	0.0615
A16G C26U	0.86
C3U C24U	0.679
C26A U72G	0.657

Variant	self-cleavage
G74C A87U	0.304
U9C C24U	1.05
C58G U69G	1.17
G6C C61U	0.285
U23A U60A	0.98
G29U G81C	0.086
C19U C30U	0.0608
G11A A87U	0.495
G53U U65C	0.819
C14G U47A	0
U27C U72G	0.612
C3G G82A	0.19
G53U C84A	0.754
U47G G82C	0.237
C3G G31U	0.0739
G17C A71U	0.32
C15A C85G	0.739
A56G A87U	0.897
C21G C36U	0.0326
C57G U60C	1.07
C58U C66G	0.931
U12C U72A	0.107
C58A G73A	0.787
C48G C58U	0.617

Variant	self-cleavage
G40C G76A	0.163
G5A U9A	0.332
G2U G10C	0.0621
A43G A71U	0.95
C44U G54U	0.799
G5A G39A	0.181
C66A G82U	0.36
G29A G34C	0.148
G6A C84A	0.431
G55A U72G	0.415
G5A C30G	0.0426
U60A G74A	0.422
G1A C86U	0.19
C32U C84A	0.753
C18U A87C	0.692
C21G G73A	0.111
G38A A70G	0
G73A G81U	0.18
A56C A77G	1.02
C3U A16G	0.675
C13G C49G	0.356
U12C C18A	0.0739
G73A G76C	0.516
